From patent US20190022241A1 (AbbVie / Abbott, published 2019)

T1: human SEZ6L ECD-His (human, UniProt Q9BYH1 29-955)
T1 construct: whole entry named
T1 sequence: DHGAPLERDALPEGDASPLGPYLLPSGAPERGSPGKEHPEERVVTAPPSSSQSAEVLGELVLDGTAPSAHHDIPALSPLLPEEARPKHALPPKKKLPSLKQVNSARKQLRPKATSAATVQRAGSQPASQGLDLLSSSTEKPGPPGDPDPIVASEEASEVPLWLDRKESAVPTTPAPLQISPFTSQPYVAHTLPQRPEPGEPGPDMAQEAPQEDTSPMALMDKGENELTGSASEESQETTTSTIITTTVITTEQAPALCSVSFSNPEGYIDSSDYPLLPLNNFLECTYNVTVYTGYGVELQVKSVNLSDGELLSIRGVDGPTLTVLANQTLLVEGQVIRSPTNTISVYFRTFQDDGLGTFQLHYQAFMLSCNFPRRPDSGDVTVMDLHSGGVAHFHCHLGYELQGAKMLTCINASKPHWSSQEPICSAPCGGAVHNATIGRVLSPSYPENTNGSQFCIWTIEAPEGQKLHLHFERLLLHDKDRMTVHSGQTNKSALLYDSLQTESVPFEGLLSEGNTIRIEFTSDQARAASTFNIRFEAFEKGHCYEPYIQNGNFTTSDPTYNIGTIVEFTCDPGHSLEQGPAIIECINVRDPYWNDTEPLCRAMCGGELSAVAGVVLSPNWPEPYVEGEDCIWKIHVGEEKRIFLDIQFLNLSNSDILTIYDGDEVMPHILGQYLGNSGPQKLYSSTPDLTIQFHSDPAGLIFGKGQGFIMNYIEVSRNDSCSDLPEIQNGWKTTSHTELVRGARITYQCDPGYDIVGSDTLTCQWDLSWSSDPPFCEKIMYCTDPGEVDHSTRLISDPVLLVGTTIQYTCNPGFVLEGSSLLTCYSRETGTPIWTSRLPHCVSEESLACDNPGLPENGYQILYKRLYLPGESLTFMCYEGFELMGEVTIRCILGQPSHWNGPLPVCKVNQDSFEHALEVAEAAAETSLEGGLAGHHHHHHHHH

T2: rSEZ6-ECD-His (rat, UniProt Q7TSK2 20-922 (mouse entry))
T2 construct: the whole entry is named; also called rat recombinant SEZ6-His; rat SEZ6 ECD
T2 chain: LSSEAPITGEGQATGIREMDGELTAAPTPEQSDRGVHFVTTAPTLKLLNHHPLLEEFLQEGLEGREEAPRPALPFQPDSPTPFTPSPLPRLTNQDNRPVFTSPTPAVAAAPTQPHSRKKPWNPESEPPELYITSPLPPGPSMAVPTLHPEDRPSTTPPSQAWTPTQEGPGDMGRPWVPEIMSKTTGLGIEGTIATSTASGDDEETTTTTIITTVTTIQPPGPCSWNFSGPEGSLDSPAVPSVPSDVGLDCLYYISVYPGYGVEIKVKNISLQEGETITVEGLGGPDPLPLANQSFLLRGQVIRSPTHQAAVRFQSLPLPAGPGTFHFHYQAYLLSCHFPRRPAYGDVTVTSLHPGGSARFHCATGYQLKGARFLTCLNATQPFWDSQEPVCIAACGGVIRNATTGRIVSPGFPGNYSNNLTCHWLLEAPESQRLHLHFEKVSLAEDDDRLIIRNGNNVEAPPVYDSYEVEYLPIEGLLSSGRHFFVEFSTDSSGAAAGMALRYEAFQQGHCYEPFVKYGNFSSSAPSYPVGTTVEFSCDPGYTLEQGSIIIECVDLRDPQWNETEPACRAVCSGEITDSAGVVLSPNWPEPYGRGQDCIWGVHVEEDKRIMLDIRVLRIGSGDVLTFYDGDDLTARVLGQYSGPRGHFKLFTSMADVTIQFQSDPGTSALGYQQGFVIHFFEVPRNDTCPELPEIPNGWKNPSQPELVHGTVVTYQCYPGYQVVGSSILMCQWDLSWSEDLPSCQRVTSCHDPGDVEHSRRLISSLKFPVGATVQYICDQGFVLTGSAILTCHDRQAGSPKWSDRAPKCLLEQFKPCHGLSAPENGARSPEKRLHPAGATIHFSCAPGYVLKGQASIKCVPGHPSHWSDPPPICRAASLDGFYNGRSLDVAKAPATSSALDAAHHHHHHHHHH

T3: rat SEZ6 on RIN-m5F cells (rat, UniProt Q7TSK2 20-991 (mouse entry))
T3 construct: endogenous on RIN-m5F cells; also called rSEZ6
T3 chain: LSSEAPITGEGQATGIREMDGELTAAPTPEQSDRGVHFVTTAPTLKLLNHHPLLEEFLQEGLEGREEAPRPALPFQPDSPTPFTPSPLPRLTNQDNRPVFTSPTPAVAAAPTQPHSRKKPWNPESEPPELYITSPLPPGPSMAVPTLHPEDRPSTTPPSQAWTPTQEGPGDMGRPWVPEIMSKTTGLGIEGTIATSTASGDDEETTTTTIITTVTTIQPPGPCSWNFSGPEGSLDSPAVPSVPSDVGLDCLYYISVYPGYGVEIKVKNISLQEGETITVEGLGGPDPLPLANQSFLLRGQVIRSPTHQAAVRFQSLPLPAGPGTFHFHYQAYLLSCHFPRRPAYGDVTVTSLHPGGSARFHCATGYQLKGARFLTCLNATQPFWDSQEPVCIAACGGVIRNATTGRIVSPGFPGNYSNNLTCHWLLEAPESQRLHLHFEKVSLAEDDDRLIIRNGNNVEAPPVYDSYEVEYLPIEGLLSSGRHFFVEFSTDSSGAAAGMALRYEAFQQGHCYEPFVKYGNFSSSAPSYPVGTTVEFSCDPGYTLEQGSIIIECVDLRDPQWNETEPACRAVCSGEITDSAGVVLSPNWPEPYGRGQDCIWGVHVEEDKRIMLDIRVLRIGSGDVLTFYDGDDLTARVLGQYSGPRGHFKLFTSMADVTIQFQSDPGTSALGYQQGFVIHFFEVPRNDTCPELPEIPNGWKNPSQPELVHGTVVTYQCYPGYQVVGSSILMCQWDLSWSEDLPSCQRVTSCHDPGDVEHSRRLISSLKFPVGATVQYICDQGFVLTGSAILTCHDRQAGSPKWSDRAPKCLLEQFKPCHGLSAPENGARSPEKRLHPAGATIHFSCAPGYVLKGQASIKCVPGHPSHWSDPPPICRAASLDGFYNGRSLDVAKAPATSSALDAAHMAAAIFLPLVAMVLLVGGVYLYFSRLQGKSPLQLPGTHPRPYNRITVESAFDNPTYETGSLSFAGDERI

B1: SC17.34 (antibody, V domains shown)
VH: EVQLQQSGPELVKPGSSVKISCKASGYTFTDYNMDWVKQSHGKRLEWIGYIYPDNGGAGYNQKFKGKATLTVDKSSSTAYMELRSLTSEDSAVYYCSRSITTAWFAYWGQGTLVTVSA
VL: DIKMTQSPSSMYASLGERVTITCKASQDINSYLSWFQQKPGKSPKTLIYRANRLVDGVPSRFSGSGSGQDYSLTISSLEYEDMGIYYCLQYDEFPPTFGGGTKLEIK
notes: murine mAb
B2: SC17.17 (antibody, V domains shown)
VH: EVQLQQSGPEVMKPGASVKMSCKASGYTFTDYNMHWVKQNQGKSLEWIGEINPNIGGTGYNQKFKGKATLTVHKSSSTAYMELRSLTSEDSAVYYCARTYSYYSYEFAYWGQGTLVTVSA
VL: QIVLTQSPAIMSASPGEKVTMTCSASSSVSYMHWYQQKSGTSPKRWIYDTSKLPSGVPARFSGSGSGTSYSLTISSMEAEDAATYYCQQWSSTPPTFGAGTKLELK
notes: murine mAb

What was measured:
human SEZ6L ECD-His = molecular target: T1, human SEZ6L ECD-His; experiment: ELISA on plates coated with SEZ6L protein
Experimental: To determine cross reactivity to family member proteins, SEZ6L and SEZ6L2, an ELISA-based assay was used. Plates were coated with SEZ6, SEZ6L, or SEZ6L2 proteins at 0.2 μg/mL in PBS overnight. After washing with PBS containing 0.05% (v/v) Tween 20 (PB ST), the wells were blocked with 2% (w/v) BSA in PBS (PB SA), 100 μL/well for 1 hour at room temperature. Antibody was then added at 1 μg/mL in 100 μL PBSA for 1 hour at room temperature. After washing with PBST, 100 μL/well HRP-labeled goat anti-mouse IgG diluted 1:2,000 in PBSA for 1 hour at room temperature. […] After developing, an equal volume of 2M H₂SO₄ was added to stop substrate development and analyzed by spectrophotometer at OD 450.

rSEZ6-ECD-His = molecular target: T2, rSEZ6-ECD-His; experiment: bio-layer interferometry (ForteBio RED) or surface plasmon resonance (Biacore 2000) on rat SEZ6-His; the table does not say which; column Rat XR (Kd, nM)
Text: Various methods were used to analyze the binding and immunochemical characteristics of selected SEZ6 modulators generated as set forth above.

[1] = molecular target: T3, rat SEZ6 on RIN-m5F cells; experiment: flow cytometry, RIN-m5F cells, 5 ug/mL antibody
Experimental: Briefly 1×10⁵ cells per well of Neuro2a, RIN-5mF, or yeast displaying cynomolgus SEZ6 cells were incubated for 30 minutes with 50 μL PBS (2% FCS) buffer with 5 μg/mL antibody. […] After incubating for 15 minutes cells were washed twice with the PBS buffer and re-suspended in the same with DAPI for flow cytometry analysis of Neuro2a and Rin-m5F or buffer without DAPI for flow cytometric analysis of yeast cells with cSEZ6.

Row | Binder | binding result (human SEZ6L ECD-His) | Kd (rSEZ6-ECD-His) [nM] | binding result [1]
1 | B1 | no binding (tested: 1 µg/mL) | 79.5 | binds
2 | B2 | no binding (tested: 1 µg/mL) | 5 | binds
